Reference: paper PMC2841647 (PLoS ONE, 2010)

Tests used:
mice = assay: Open field; assay type: in vivo, mouse
Description: Mice were treated as described above before being subjected to behavioral studies. Predictive estimation for anxiolytic properties of tat-cyclotraxin-B was assessed using open field and elevated plus-maze (EPM). Antidepressant-like action of tat-cyclotraxin-B was assessed with the forced-swim test (FST). Effects of acute treatment with tat-cyclotraxin-B on spontaneous locomotion, exploration and reactivity to a novel open field was assessed in plexiglas activity chambers (Med Associates; 45×45×31 cm). Mice were placed into the center of the open field, and activity was recorded for 30 min. Testing took place under bright ambient light conditions to increase the anxiety component of the center areas of the field (defined as the central 15×15 cm portion). Mice subjected to EPM received a double 90-interval i.v. injection of tat-cyclotraxin-B or saline buffer before being placed on the platform of the EPM and assessed for 5 min (26×5×36 cm). The diazepam control group consisted of saline buffer double-treated mice that further received a 30-min i.p. injection of diazepam (1 mg/kg). Mice were assessed for number of entries and amount of time spent in open versus closed arms. […] The total time of swimming, the number of climbing attempts and the time of immobility was recorded during the last 4 min of the session, after 2 min of habituation. […] Behaviors were recorded on videotape and scored blind.

human TrkB receptor = target: T1, human TrkB receptor (Homo sapiens, UniProt Q16620); assay: KIRA-ELISA (TrkB tyrosine phosphorylation) in TetOn-rhTrkB CHO cells; assay type: cell-based; conditions: TetOn-rhTrkB cells, with or without 4 nM BDNF
T1 construct: expressed in transfected cells
T1 sequence (Q16620 32-822): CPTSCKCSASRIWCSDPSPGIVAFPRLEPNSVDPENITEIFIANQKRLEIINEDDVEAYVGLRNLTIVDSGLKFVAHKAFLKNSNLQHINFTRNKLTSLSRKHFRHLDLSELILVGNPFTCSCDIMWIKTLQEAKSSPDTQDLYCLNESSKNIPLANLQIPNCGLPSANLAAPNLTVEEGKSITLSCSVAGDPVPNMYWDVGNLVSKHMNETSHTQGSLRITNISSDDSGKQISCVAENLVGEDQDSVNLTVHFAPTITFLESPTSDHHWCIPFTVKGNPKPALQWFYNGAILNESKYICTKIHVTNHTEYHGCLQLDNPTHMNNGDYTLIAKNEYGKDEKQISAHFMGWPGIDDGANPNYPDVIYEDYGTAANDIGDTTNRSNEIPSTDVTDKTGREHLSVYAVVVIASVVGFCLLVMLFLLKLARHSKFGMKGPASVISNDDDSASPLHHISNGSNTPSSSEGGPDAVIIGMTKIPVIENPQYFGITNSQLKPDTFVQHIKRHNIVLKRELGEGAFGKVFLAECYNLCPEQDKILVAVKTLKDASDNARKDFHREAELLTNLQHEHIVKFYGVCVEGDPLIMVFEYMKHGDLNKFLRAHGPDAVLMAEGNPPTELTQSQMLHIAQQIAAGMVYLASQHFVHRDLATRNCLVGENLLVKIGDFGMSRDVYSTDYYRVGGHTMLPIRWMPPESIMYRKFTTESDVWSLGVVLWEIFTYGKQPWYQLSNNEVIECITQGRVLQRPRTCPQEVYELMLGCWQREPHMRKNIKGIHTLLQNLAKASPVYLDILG
Source text: The human recombinant TrkB receptor was fluorescently tagged at its C-terminus with the Enhanced cyan fluorescent protein (rhTrkB-ECFP) by cloning the full human TrkB sequence (kindly provided by G. M. Brodeur) into the pECFP-N1 expression vector (Clontech). For inducible expression, rhTrkB-ECFP was subcloned into the tetracycline-responsive (TetOn) vector pTRE2 (Clontech). Chinese Hamster Ovary cells stably expressing rhTrkB-ECFP (TetOn-rhTrkB cells), were produced by transfection of the pTRE2-rhTrkB-ECFP plasmid into CHO-K1 TetOn cells (Clontech) followed by clone selection in 0.25 mg/ml hygromycin B (Invitrogen) and 0.1 mg/ml geneticin (G418; Invitrogen). Resistant cells were selected based on both fluorescence intensity and KIRA-ELISA profile after an overnight incubation in presence of 1000 ng/ml doxycycline (Clontech). Cortical neurons were prepared and cultured from E16 mouse embryos as described previously. The nnr5 PC12-TrkA, nnr5 PC12-TrkB and nnr5 PC12-TrkC cells (kindly provided by M. V. Chao) are NGF non-responding mutant PC12 cells stably transfected with TrkA, TrkB and TrkC cDNA, respectively.
TrkB activity was quantified using the previously described KIRA-ELISA assay with slight modifications. Cortical neurons were seeded on polyornithin-coated flat-bottom 96-well culture plates (12×10^4 cells per well) and cultured eight days at 37°C in 5% CO2. TetOn-rhTrkB cells were seeded on flat-bottom 96-well culture plates (4×10^4 cells per well) and incubated overnight with 1000 ng/ml doxycycline (Figs. S1,S2) except when indicated. Fluorescence levels in TetOn-rhTrkB cells were verified before each assay. […] Assay was stopped by removing the medium on ice and membranes were solubilized using KIRA-ELISA solubilization buffer (NaCl 150 mM, Hepes 50 mM, Triton X-100 0.5%, thimerosal 0.01%, sodium orthovanadate 2 mM, supplemented with a cocktail of protease inhibitors) for 1 h at room temperature. Solubilized membranes were transferred for 2 h at room temperature onto ELISA microtiter plate (Nunc Maxisorp) pre-coated overnight at 4°C with appropriate antibodies [polyclonal anti-GFP (1∶5000, Clontech) for TetOn-rhTrkB, polyclonal anti-TrkB (1 µg/ml, Upstate) for cultured neurons and brain slices, for phosphorylation assays; monoclonal anti-GFP (1∶3000, Chemicon) for TetOn-rhTrkB, monoclonal anti-TrkB (1∶1000, BD Biosciences) for cultured neurons and brain slices, for total TrkB quantification]. […] Absorbance was read at 450 nm after addition of 3,3′,5′,5-tetramethyl-benzidine substrate (Sigma) and acidification with 1N hydrochloric acid.
Concentration-response and competition curves were obtained using an iterative least-squares method derived from that of Parker & Waud (1971). […] Concentration-response curves and Eadie-Hofstee plots were analyzed using two-way ANOVA. Significance over time in locomotor activity studies was given using two-way ANOVA followed by Bonferroni's post-hoc test. […] One-way ANOVA followed by post-hoc Dunnett's test was used to evaluate statistical significance compare to saline group in EPM and FST procedures. n represents the number of independent experiments.

For “YGRKKRRQRRRCNPMGYTKEGC [tat-cyclotraxin-B]”, the “locomotor activity in open field” value (mice; 30 min) was “did not show any alterations”, the “time in the center compartment of open field” value (mice; compared to saline controls) was “significantly more time” and the “TrkB inhibition compared with cyclotraxin-B” value (human TrkB receptor) was “similarly to cyclotraxin-B”.
